The values that follow come from patent publication US20050282743A1, “Molecular interactions in cells” (Arbor Vita Corporation, priority 2001, published 2005).

The target in assay [1] is GST-Atrophin-1 Interacting Protein PDZ domain 5 (Rattus norvegicus (Rat)), O88382. The experiment in a line: G' assay. Also: key of the grades not given here.
The target of assay [2] is GST-BAI-1 Associated Protein PDZ domain 3 (Homo sapiens (Human)), Q96QZ7. The experiment in a line: G' assay. Also: key of the grades not given here.
Sequence of GST-BAI-1 Associated Protein PDZ domain 3 (Homo sapiens (Human)), Q96QZ7 (Q96QZ7 other isoform, or with tags, fused parts or gaps): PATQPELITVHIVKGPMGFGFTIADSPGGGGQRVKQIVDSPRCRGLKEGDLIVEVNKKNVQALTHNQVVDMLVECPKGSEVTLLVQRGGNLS
For assay [3], the target named is GST-DLG1 PDZ domains 1, 2 (Homo sapiens), Q12959. In words: G' assay. Also: key of the grades not given here.
The target in assay [4] is T1, GST-KIAA1634 PDZ domain 2 (Homo sapiens (Human)), Q5TCQ9.
T1 chain: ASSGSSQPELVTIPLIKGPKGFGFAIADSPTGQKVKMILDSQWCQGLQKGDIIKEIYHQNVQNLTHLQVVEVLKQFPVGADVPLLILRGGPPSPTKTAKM
The experiment in a line: G' assay. Also: key of the grades not given here.

Assay [5] deals with T2, GST-NeDLG PDZ domains 1, 2, Q92796.
T2 chain: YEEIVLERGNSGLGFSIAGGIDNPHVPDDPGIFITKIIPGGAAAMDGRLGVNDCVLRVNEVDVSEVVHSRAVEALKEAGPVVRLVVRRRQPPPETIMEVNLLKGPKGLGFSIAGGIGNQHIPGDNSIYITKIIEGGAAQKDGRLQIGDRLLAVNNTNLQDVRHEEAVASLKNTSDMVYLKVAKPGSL
In words: G' assay. Also: key of the grades not given here.

For assay [6], the target named is GST-PSD95 PDZ domains 1, 2, 3 (Homo sapiens), P78352. The experiment in a line: G' assay. Also: key of the grades not given here.
Sequence of GST-PSD95 PDZ domains 1, 2, 3 (Homo sapiens), P78352 (P78352 62-395): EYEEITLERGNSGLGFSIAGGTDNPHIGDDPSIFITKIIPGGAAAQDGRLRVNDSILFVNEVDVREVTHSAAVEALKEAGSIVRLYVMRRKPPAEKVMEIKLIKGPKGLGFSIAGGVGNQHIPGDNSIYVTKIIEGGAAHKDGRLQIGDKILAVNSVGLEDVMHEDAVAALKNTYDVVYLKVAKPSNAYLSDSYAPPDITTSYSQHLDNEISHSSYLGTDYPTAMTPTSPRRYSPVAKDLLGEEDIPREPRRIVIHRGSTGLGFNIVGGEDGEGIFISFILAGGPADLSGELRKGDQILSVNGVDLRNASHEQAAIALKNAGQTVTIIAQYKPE
The target of assay [7] is T3, GST-PTPL1 PDZ domain 2 (Homo sapiens (Human)), Q12923.
T3 chain: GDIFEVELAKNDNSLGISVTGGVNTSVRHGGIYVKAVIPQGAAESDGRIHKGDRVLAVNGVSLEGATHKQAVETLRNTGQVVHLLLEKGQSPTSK
The experiment in a line: G' assay. Also: key of the grades not given here.

The target in assay [8] is T4, GST-Syntrophin 1 alpha PDZ domain 1 (Homo sapiens (Human)), Q13424.
T4 chain: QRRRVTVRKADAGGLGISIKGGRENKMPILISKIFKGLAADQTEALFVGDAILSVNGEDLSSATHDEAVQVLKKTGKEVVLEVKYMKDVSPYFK
The experiment in a line: G' assay. Also: key of the grades not given here.

In assay [9] the target is T5, GST-Syntrophin gamma 1 PDZ domain 1 (Homo sapiens (Human)), Q9NSN8.
T5 chain: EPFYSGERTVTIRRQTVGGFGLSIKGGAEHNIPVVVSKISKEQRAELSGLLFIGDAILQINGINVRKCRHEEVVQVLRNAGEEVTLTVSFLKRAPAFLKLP
The experiment in a line: G' assay. Also: key of the grades not given here.

Assay [10] addresses T6, GST-TIP1 PDZ domain 1 (Table 9 insert) (Homo sapiens (Human)), O14907.
T6 chain: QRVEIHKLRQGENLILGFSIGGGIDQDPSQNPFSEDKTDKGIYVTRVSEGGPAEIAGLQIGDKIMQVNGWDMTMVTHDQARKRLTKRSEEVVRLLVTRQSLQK
In words: G' assay. Also: key of the grades not given here.

In assay [11] the target is T1, GST-KIAA1634 PDZ domain 2 (Homo sapiens …). In words: G assay titration, PDZ 1 ug/ml.
The target in assay [12] is T3, GST-PTPL1 PDZ domain 2 (Homo sapiens …). In words: G assay titration, PDZ 0.5 ug/ml.
The target in assay [13] is GST-BAI-1 Associated Protein PDZ domain 5 (Homo sapiens (Human)), Q96QZ7. The experiment in a line: G' assay. Also: key of the grades not given here.
Sequence of GST-BAI-1 Associated Protein PDZ domain 5 (Homo sapiens (Human)), Q96QZ7 (Q96QZ7 988-1099): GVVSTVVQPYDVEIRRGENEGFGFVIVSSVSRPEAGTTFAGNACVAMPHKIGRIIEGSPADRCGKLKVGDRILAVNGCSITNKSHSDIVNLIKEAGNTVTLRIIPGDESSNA
The target of assay [14] is T7, GST-DLG1 PDZ domain 2 (Homo sapiens), Q12959.
T7 chain: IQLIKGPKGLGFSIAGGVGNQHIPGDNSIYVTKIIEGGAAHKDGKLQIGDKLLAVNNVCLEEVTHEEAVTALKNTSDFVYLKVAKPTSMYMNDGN
The experiment in a line: G' assay.

Assay [15] addresses T8, GST-ERBIN PDZ domain 1 (Homo sapiens (Human)), Q96RT1.
T8 chain: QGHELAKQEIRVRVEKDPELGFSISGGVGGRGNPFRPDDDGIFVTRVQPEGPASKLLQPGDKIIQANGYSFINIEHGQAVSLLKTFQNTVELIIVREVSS
The experiment in a line: G' assay.

Assay [16] concerns the target T9, GST-INADL PDZ domain 8 (Homo sapiens (Human)), Q8NI35.
T9 chain: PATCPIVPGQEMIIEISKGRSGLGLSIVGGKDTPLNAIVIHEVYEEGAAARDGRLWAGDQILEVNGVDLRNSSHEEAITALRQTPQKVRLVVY
In words: G' assay.

Assay [17] concerns the target T10, GST-KIAA0380 PDZ domain 1 (Homo sapiens (Human)), O15085.
T10 chain: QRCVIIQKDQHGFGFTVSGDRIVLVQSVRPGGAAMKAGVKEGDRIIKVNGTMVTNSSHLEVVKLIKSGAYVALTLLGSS
The experiment in a line: G' assay.

The target of assay [18] is T11, GST-KIAA0807(S) PDZ domain 1 (Homo sapiens (Human)), Q6P0Q8.
T11 chain: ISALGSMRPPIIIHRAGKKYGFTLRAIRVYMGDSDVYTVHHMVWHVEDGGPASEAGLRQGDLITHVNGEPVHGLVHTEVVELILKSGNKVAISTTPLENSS
The experiment in a line: G' assay.

In assay [19] the target is T12, GST-KIAA0973 PDZ domain 1 (Homo sapiens (Human)), Q9Y2H9.
T12 chain: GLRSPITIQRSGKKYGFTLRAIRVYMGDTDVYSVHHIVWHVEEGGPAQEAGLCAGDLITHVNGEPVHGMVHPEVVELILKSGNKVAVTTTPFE
The experiment in a line: G' assay.

Assay [20] concerns the target T13, GST-KIAA1526 PDZ domain 1 (Homo sapiens (Human)), Q9P202.
T13 chain: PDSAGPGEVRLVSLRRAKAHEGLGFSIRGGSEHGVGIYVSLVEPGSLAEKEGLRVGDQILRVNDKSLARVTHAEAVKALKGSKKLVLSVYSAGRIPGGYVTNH
The experiment in a line: G' assay.

Assay [21] has as its target GST-KIAA1634 PDZ domain 4 (Homo sapiens (Human)), Q5TCQ9. The experiment in a line: G' assay. Also: key of the grades not given here.
Assay [22] deals with GST-KIAA807 [GST: P08515]. The experiment in a line: G' assay.
Sequence of GST-KIAA807 [GST: P08515] (P08515 whole entry, the tested form may be a part): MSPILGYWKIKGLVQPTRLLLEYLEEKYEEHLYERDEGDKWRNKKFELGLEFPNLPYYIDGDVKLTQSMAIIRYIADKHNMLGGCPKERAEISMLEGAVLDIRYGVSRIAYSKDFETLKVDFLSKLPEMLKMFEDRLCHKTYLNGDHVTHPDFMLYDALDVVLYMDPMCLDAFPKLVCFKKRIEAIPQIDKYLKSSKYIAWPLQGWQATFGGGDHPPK
In assay [23] the target is T14, GST-MUPP1 PDZ domain 10 (Homo sapiens (Human)), O75970.
T14 chain: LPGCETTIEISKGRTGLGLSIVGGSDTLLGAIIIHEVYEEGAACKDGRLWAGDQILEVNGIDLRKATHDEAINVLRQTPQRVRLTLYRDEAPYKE
The experiment in a line: G' assay.

The target of assay [24] is T15, GST-NeDLG PDZ domain 3 (Mus musculus (Mouse)), P70175.
T15 chain: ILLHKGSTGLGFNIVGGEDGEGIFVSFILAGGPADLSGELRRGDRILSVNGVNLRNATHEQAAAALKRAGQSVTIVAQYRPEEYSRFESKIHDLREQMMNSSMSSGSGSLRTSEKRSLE
In words: G' assay.

The target in assay [25] is T16, GST-Outer Membrane PDZ domain 1 (Homo sapiens (Human)), P57105.
T16 chain: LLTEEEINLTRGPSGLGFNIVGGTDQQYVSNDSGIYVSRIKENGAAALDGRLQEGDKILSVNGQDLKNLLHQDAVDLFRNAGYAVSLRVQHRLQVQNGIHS
In words: G' assay.

The target of assay [26] is T17, GST-ZO-3 PDZ domain 3 (Homo sapiens (Human)), O95049.
T17 chain: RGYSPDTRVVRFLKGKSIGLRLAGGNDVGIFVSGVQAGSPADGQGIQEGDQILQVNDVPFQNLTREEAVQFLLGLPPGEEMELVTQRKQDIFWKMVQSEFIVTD
In words: G' assay.

Assay [27] has as its target T8, GST-ERBIN PDZ domain 1 (Homo sapiens …). The experiment in a line: G assay titration, PDZ 5 ug/ml.
For assay [28], the target named is GST-KIAA1634 PDZ domain 4 (Homo sapiens (Human)), Q5TCQ9. In words: G assay titration, PDZ 5 ug/ml.
Sequence of GST-KIAA1634 PDZ domain 4 (Homo sapiens (Human)), Q5TCQ9 (Q5TCQ9 844-945): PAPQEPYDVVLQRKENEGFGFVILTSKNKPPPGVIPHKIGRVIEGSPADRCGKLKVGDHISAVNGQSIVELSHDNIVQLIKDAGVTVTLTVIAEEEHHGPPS
Assay [29] concerns the target T11, GST-KIAA0807(S) PDZ domain 1 (Homo …). In words: G assay titration, PDZ 0.1 ug/ml.
The target of assay [30] is GST-KIAA1634 PDZ domain 1 (Homo sapiens (Human)), Q5TCQ9. In words: G' assay. Also: key of the grades not given here.
Sequence of GST-KIAA1634 PDZ domain 1 (Homo sapiens (Human)), Q5TCQ9 (Q5TCQ9 401-502): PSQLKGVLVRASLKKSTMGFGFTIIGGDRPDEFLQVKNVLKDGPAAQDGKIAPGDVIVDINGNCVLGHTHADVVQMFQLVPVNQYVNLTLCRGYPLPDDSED
The target in assay [31] is T18, GST-KIAA1719 PDZ domain 2 (Homo sapiens (Human)), Q9C0E4.
T18 chain: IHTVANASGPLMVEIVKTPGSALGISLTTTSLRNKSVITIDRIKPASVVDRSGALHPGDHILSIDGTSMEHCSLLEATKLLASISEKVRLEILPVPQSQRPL
In words: G' assay.

For assay [32], the target named is T19, GST-KIAA1719 PDZ domain 5 (Homo sapiens (Human)), Q9C0E4.
T19 chain: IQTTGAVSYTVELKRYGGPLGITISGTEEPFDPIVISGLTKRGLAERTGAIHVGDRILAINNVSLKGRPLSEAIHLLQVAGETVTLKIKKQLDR
The experiment in a line: G' assay.

For assay [33], the target named is T20, GST-MINT1 PDZ domains 1, 2, Q02410.
T20 chain: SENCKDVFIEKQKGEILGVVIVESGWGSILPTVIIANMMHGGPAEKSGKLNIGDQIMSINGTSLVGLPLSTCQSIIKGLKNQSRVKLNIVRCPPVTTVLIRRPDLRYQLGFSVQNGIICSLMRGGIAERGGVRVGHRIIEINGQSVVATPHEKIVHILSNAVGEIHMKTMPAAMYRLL
The experiment in a line: G' assay.

Assay [34] deals with GST-TAX IP2 PDZ domain 1 [GST: P08515]. The experiment in a line: G' assay.
Sequence of GST-TAX IP2 PDZ domain 1 [GST: P08515] (P08515 whole entry, the tested form may be a part): as the sequence (P08515 whole entry, the tested form may be a part) above

Sequence of GST-Atrophin-1 Interacting Protein PDZ domain 5 (Rattus norvegicus (Rat)), O88382 (O88382 1128-1225): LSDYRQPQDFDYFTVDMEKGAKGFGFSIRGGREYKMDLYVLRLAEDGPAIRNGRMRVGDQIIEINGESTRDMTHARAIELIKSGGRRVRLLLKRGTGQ

As usually defined, the Kd is the constant that tells how readily two partners part at equilibrium. Low values mean higher affinity, high ones lower affinity. For the molecule EDPKDRPSAAHIVEALETDV (modifications not checked) [PDZ-binding kinase (PBK)], the Classification in assay [1] came to 1 A450 class; in assay [2], 1 A450 class; in assay [3], 1 A450 class; in assay [4] it was 3 A450 class; in assay [5], 1 A450 class; in [6], 1 A450 class. Further, the Classification is 4 A450 class in [7], 1 A450 class in assay [8], 1 A450 class in [9] and 1 A450 class in assay [10]. Moreover, the Kd in assay [11] was found to be 7 µM; in assay [12] it was 6 µM.

As for AGAVRTPLSQVNKVWDQSSV (modifications not checked) [CITRON protein], the Classification came to 2 A450 class in assay [13]; 2 A450 class in assay [14]; 4 A450 class in [15]; 1 A450 class in assay [16]; 1 A450 class in [17]; 4 A450 class in [18]. For the same molecule, the Classification in [19] was 5 A450 class; in [20] it was 1 A450 class; in [21] it was 3 A450 class; in assay [22], 4 A450 class; in assay [23] it was 1 A450 class; in assay [24], 3 A450 class. The Classification turned out to be 4 A450 class in assay [25], 1 A450 class in assay [8], 5 A450 class in assay [10] and 1 A450 class in assay [26]. Besides, the Kd in assay [27] was found to be 7 µM; in [28], 8 µM; in [29] it was 1 µM.

With ERASSVYTRSTGEQEISVGL (modifications not checked) [CKR5 (HIV Co-receptor)], the Classification in assay [30], in [31], in assay [32], in [33], in assay [34] and in assay [10] was 1 A450 class each time.
